Results published in patent US20250215412A1 (NOVOZYMES A S, published 2025).
Where a chain is given by its changes, count along the chain named. Names and notes keep the numbering of the source. Blank lines part the entries; values can stand above or below the binder they belong to.

Experiments:
Assay in all cases: cell-based or functional assay
[1] = molecular target: T1, Chryseobacterium sp-62563 deamidase Q126F (Chryseobacterium sp-62563)
T1 sequence: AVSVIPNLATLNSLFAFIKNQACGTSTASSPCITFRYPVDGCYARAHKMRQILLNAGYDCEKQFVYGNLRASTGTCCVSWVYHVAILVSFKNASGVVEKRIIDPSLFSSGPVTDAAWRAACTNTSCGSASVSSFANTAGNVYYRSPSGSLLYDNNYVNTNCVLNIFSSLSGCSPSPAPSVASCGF

[2] = molecular target: T2, Chryseobacterium sp-62563 deamidase Q126Y (Chryseobacterium sp-62563)
T2 sequence: T1 sequence with F17Y

[3] = molecular target: T3, Chryseobacterium sp-62563 deamidase Q160R (Chryseobacterium sp-62563)
T3 sequence: T1 sequence with F17Q, Q51R

[4] = molecular target: T4, Chryseobacterium sp-62563 deamidase Q172I (Chryseobacterium sp-62563)
T4 sequence: T1 sequence with F17Q, Q63I

[5] = molecular target: T5, Chryseobacterium sp-62563 deamidase polypeptide (second polypeptide, deamidase domain), wildtype (Chryseobacterium sp-62563)
T5 chain: T1 sequence with F17Q

[6] = molecular target: T6, Chryseobacterium sp-62563 deamidase V190F (Chryseobacterium sp-62563)
T6 chain: T1 sequence with F17Q, V81F

[7] = molecular target: T7, Chryseobacterium sp-62563 deamidase V190K (Chryseobacterium sp-62563)
T7 chain: T1 sequence with F17Q, V81K

[8] = molecular target: T8, Chryseobacterium sp-62563 deamidase V190Q (Chryseobacterium sp-62563)
T8 chain: T1 sequence with F17Q, V81Q

[9] = molecular target: T9, Chryseobacterium sp-62563 deamidase V190Y (Chryseobacterium sp-62563)
T9 chain: T1 sequence with F17Q, V81Y

[10] = molecular target: T10, Chryseobacterium sp-62563 deamidase S256D (Chryseobacterium sp-62563)
T10 chain: T1 sequence with F17Q, S147D

[11] = molecular target: T11, Chryseobacterium sp-62563 deamidase T268I (Chryseobacterium sp-62563)
T11 chain: T1 sequence with F17Q, T159I

[12] = molecular target: T12, Chryseobacterium sp-62563 deamidase P285D (Chryseobacterium sp-62563)
T12 chain: T1 sequence with F17Q, P176D

Relative activity of maturated deamidase (% initial rate) [1]: 52
Leakage activity [2]: 3%
Relative activity of maturated deamidase (% initial rate) [2]: 98
Relative activity of maturated deamidase (% initial rate) [3]: 86
Relative activity of maturated deamidase (% initial rate) [4]: 31
B1: Chryseobacterium sp-62563 propeptide F99A (protein)
chain: NQDPNLVAKESNETAMKDFGKTVPVGIEKEDGKFKISFMVTAQPYEIKDSKENAAYISMIKTAVENETPIHVFLKANTNEIAKVDKATDDDIRYFKSVATKEVKEENRK

NanoDSF thermal unfolding temperature [5]: 85.3 ° C.
NanoDSF thermal unfolding temperature [6]: 78.2 ° C.
NanoDSF thermal unfolding temperature [7]: 76.4 ° C.
NanoDSF thermal unfolding temperature [8]: 75.8 ° C.
NanoDSF thermal unfolding temperature [9]: 81.5 ° C.
NanoDSF thermal unfolding temperature [10]: 81.5 ° C.
NanoDSF thermal unfolding temperature [11]: 76.2 ° C.
NanoDSF thermal unfolding temperature [12]: 65.8 ° C.
B2: Chryseobacterium sp-62563 propeptide (first polypeptide, propeptide domain), wildtype (other)
chain: B1 chain with A99F
